Data on 2 molecules can be found in patent publication US20150141622A1 (published 2015).

The target in the experiment is T1, mature form of human VEGF-C (human, UniProt P49767 103-227).
T1 sequence: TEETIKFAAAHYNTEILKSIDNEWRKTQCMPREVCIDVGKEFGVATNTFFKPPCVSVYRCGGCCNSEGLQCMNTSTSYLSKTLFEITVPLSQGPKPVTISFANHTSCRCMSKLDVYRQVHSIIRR
The experiment is described as follows: cell-based or functional assay.

As to VEGFR-2-Ig (Fc fusion), the VEGF-C dependent viability (Ba/F3 VEGFR-3/EpoR, MTT) (fold molar excess) was determined as 10.

B1: VEGFR-3-Ig fusion protein (first three Ig-homology domains of VEGFR-3 and IgG Fc domain) (Fc fusion, not shown: a dimerising Fc or GST)
chain: YSMTPPTLNITEESHVIDTGDSLSISCRGQHPLEWAWPGAQEAPATGDKDSEDTGVVRDCEGTDARPYCKVLLLHEVHANDTGSYVCYYKYIKARIEGTTAASSYVFVRDFEQPFINKPDTLLVNRKDAMWVPCLVSIPGLNVTLRSQSSVLWPDGQEVVWDDRRGMLVSTPLLHDALYLQCETTWGDQDFLSNPFLVHITGNELYDIQLLPRKSLELLVGEKLVLNCTVWAEFNSGVTFDWDYPGKQAERGKWVPERRSQQTHTELSSILTIHNVSQHDLGSYVCKANNGIQRFRESTEVIVHE
As for B1, the “VEGF-C-dependent cell survival (Ba/F3 VEGFR-3/EpoR, MTT)” value is 0.5 molar ratio (VEGFR-3-Ig:VEGF-C).
